{
  "source": "paper PMC4447949",
  "about": "“Structures of the Ets Protein DNA-binding Domains of Transcription Factors Etv1, Etv4, Etv5, and Fev” (The Journal of Biological Chemistry, 2015)",
  "binders": {"B1": {"name": "Etv1ALF/Etv1ALR EMSA probe (dsDNA)", "DNA 1": "ATCTCACCGGAAGTGTAGCA", "DNA 2": "TGCTACACTTCCGGTGAGAT"}},
  "conditions_in_all_cases": "protein: recombinant; tags: N-terminal His6 removed by TEV (leaves SM); blunt",
  "key": {"Etv1 C416S": {"target": "Etv1 C416S (human, UniProt P50549 326-429, C416S)", "sequence (P50549 326-429 C416S)": "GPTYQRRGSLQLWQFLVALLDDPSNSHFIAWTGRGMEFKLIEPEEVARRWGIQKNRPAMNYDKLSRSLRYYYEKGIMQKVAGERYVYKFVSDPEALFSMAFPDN", "experiment": "EMSA; 0.1 nM probe; EMSA: 50 mM Tris-HCl pH 7.5, 50 mM NaCl, 2 mM MgCl2, 0.01% Tween 20, 5% glycerol, 1 h at room temperature; proteins reduced with 10 mM TCEP unless stated; 10% native PAGE"}, "Etv1 K379A": {"target": "Etv1 K379A (human, UniProt P50549 326-429, K379A)", "sequence (P50549 326-429 K379A)": "as the sequence (P50549 326-429 C416S) above, with K54A, S91C counted along it", "experiment": "EMSA; 2 nM and 0.1 nM probe; EMSA: 50 mM Tris-HCl pH 7.5, 50 mM NaCl, 2 mM MgCl2, 0.01% Tween 20, 5% glycerol, 1 h at room temperature; proteins reduced with 10 mM TCEP unless stated; 10% native PAGE"}, "Etv1 R394A": {"target": "Etv1 R394A (human, UniProt P50549 326-429, R394A)", "sequence (P50549 326-429 R394A)": "as the sequence (P50549 326-429 C416S) above, with R69A, S91C counted along it", "experiment": "EMSA; 2 nM probe; 10 mM TCEP; EMSA: 50 mM Tris-HCl pH 7.5, 50 mM NaCl, 2 mM MgCl2, 0.01% Tween 20, 5% glycerol, 1 h at room temperature; proteins reduced with 10 mM TCEP unless stated; 10% native PAGE"}, "Etv1 D387A": {"target": "Etv1 D387A (human, UniProt P50549 326-429, D387A)", "sequence (P50549 326-429 D387A)": "as the sequence (P50549 326-429 C416S) above, with D62A, S91C counted along it", "experiment": "EMSA; 2 nM probe; 10 mM TCEP; EMSA: 50 mM Tris-HCl pH 7.5, 50 mM NaCl, 2 mM MgCl2, 0.01% Tween 20, 5% glycerol, 1 h at room temperature; proteins reduced with 10 mM TCEP unless stated; 10% native PAGE"}, "Etv1 Y329S-P427S [1]": {"target": "T1, Etv1 Y329S-P427S (human, UniProt P50549 326-429, Y329S;P427S)", "T1 sequence (P50549 326-429 Y329S/P427S)": "as the sequence (P50549 326-429 C416S) above, with Y4S, S91C, P102S counted along it", "experiment": "EMSA; 2 nM probe; 10 mM TCEP; EMSA: 50 mM Tris-HCl pH 7.5, 50 mM NaCl, 2 mM MgCl2, 0.01% Tween 20, 5% glycerol, 1 h at room temperature; proteins reduced with 10 mM TCEP unless stated; 10% native PAGE"}, "[2]": {"target": "T2, Etv1 Ets domain WT (reduced monomer) (human, UniProt P50549 326-429)", "T2 sequence (P50549 326-429)": "as the sequence (P50549 326-429 C416S) above, with S91C counted along it", "experiment": "EMSA; 2 nM probe; 10 mM TCEP; EMSA: 50 mM Tris-HCl pH 7.5, 50 mM NaCl, 2 mM MgCl2, 0.01% Tween 20, 5% glycerol, 1 h at room temperature; proteins reduced with 10 mM TCEP unless stated; 10% native PAGE"}, "Etv1 Y396F": {"target": "Etv1 Y396F (human, UniProt P50549 326-429, Y396F)", "sequence (P50549 326-429 Y396F)": "as the sequence (P50549 326-429 C416S) above, with Y71F, S91C counted along it", "experiment": "EMSA; 2 nM probe; 10 mM TCEP; EMSA: 50 mM Tris-HCl pH 7.5, 50 mM NaCl, 2 mM MgCl2, 0.01% Tween 20, 5% glycerol, 1 h at room temperature; proteins reduced with 10 mM TCEP unless stated; 10% native PAGE"}, "Etv1 R391A": {"target": "Etv1 R391A (human, UniProt P50549 326-429, R391A)", "sequence (P50549 326-429 R391A)": "as the sequence (P50549 326-429 C416S) above, with R66A, S91C counted along it", "experiment": "EMSA; 2 nM probe; 10 mM TCEP; EMSA: 50 mM Tris-HCl pH 7.5, 50 mM NaCl, 2 mM MgCl2, 0.01% Tween 20, 5% glycerol, 1 h at room temperature; proteins reduced with 10 mM TCEP unless stated; 10% native PAGE"}, "Etv1 Y329S-P427S [3]": {"target": "T1, Etv1 Y329S-P427S", "experiment": "EMSA; 0.1 nM probe; 10 mM TCEP; EMSA: 50 mM Tris-HCl pH 7.5, 50 mM NaCl, 2 mM MgCl2, 0.01% Tween 20, 5% glycerol, 1 h at room temperature; proteins reduced with 10 mM TCEP unless stated; 10% native PAGE"}, "[4]": {"target": "T2, Etv1 Ets domain WT (reduced monomer)", "experiment": "EMSA; 0.1 nM probe; 10 mM TCEP; EMSA: 50 mM Tris-HCl pH 7.5, 50 mM NaCl, 2 mM MgCl2, 0.01% Tween 20, 5% glycerol, 1 h at room temperature; proteins reduced with 10 mM TCEP unless stated; 10% native PAGE"}, "Etv1 S334E": {"target": "Etv1 S334E (human, UniProt P50549 326-429, S334E)", "sequence (P50549 326-429 S334E)": "as the sequence (P50549 326-429 C416S) above, with S9E, S91C counted along it", "experiment": "EMSA; 2 nM probe; 10 mM TCEP; saturates at 35% of probe; EMSA: 50 mM Tris-HCl pH 7.5, 50 mM NaCl, 2 mM MgCl2, 0.01% Tween 20, 5% glycerol, 1 h at room temperature; proteins reduced with 10 mM TCEP unless stated; 10% native PAGE"}, "Etv1 Y395F": {"target": "Etv1 Y395F (human, UniProt P50549 326-429, Y395F)", "sequence (P50549 326-429 Y395F)": "as the sequence (P50549 326-429 C416S) above, with Y70F, S91C counted along it", "experiment": "EMSA; 2 nM probe; 10 mM TCEP; saturates at 60% of probe; EMSA: 50 mM Tris-HCl pH 7.5, 50 mM NaCl, 2 mM MgCl2, 0.01% Tween 20, 5% glycerol, 1 h at room temperature; proteins reduced with 10 mM TCEP unless stated; 10% native PAGE"}, "Etv5 Ets domain": {"target": "Etv5 Ets domain (human, UniProt P41161 365-462)", "sequence (P41161 365-462)": "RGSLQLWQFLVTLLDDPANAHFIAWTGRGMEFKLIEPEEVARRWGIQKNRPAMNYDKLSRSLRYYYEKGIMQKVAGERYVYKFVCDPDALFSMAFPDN", "experiment": "EMSA; 10 mM TCEP; probe 0.1 nM (Table 3) or 0.2 nM (Fig. 9); EMSA: 50 mM Tris-HCl pH 7.5, 50 mM NaCl, 2 mM MgCl2, 0.01% Tween 20, 5% glycerol, 1 h at room temperature; proteins reduced with 10 mM TCEP unless stated; 10% native PAGE"}, "Etv4 Ets domain": {"target": "Etv4 Ets domain (human, UniProt P43268 338-470)", "sequence (P43268 338-470)": "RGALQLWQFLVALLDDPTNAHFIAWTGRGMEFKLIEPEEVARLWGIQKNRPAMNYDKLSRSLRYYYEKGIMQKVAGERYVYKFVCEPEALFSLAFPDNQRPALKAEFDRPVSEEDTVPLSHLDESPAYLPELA", "experiment": "EMSA; 10 mM TCEP; probe 0.1 nM (Table 3) or 0.2 nM (Fig. 9); EMSA: 50 mM Tris-HCl pH 7.5, 50 mM NaCl, 2 mM MgCl2, 0.01% Tween 20, 5% glycerol, 1 h at room temperature; proteins reduced with 10 mM TCEP unless stated; 10% native PAGE"}, "Etv1 Y397F": {"target": "Etv1 Y397F (human, UniProt P50549 326-429, Y397F)", "sequence (P50549 326-429 Y397F)": "as the sequence (P50549 326-429 C416S) above, with Y72F, S91C counted along it", "experiment": "EMSA; 2 nM probe; undetectable or below regression threshold; EMSA: 50 mM Tris-HCl pH 7.5, 50 mM NaCl, 2 mM MgCl2, 0.01% Tween 20, 5% glycerol, 1 h at room temperature; proteins reduced with 10 mM TCEP unless stated; 10% native PAGE"}},
  "data": [
    {"binder": "B1", "values": [
      {"measurement": "Kd", "setting": "Etv1 C416S", "result": "0.26 ± 0.06", "unit": "nM"},
      {"measurement": "binding result", "setting": "Etv1 K379A", "result": "no binding"},
      {"measurement": "Kd", "setting": "Etv1 R394A", "result": "276 ± 62.7", "unit": "nM"},
      {"measurement": "Kd", "setting": "Etv1 D387A", "result": "0.17 ± 0.02", "unit": "nM"},
      {"measurement": "Kd", "setting": "Etv1 Y329S-P427S [1]", "result": "0.25 ± 0.026", "unit": "nM"},
      {"measurement": "Kd", "setting": "[2]", "result": "0.27 ± 0.028", "unit": "nM"},
      {"measurement": "Kd", "setting": "Etv1 Y396F", "result": "2640 ± 935", "unit": "nM"},
      {"measurement": "Kd", "setting": "Etv1 R391A", "result": "11.8 ± 1.48", "unit": "nM"},
      {"measurement": "Kd", "setting": "Etv1 Y329S-P427S [3]", "result": "0.31 ± 0.06", "unit": "nM"},
      {"measurement": "Kd", "setting": "[4]", "result": "0.59 ± 0.15", "unit": "nM"},
      {"measurement": "Kd", "setting": "Etv1 S334E", "result": "0.89 ± 0.32", "unit": "nM"},
      {"measurement": "Kd", "setting": "Etv1 Y395F", "result": "0.23 ± 0.05", "unit": "nM"},
      {"measurement": "Kd", "setting": "Etv5 Ets domain", "result": "1.16 ± 0.11", "unit": "nM"},
      {"measurement": "Kd", "setting": "Etv4 Ets domain", "result": "0.34 ± 0.066", "unit": "nM"},
      {"measurement": "binding result", "setting": "Etv1 Y397F", "result": "no binding"}
    ]}
  ]
}
